Measurements taken from patent US20250051474A1, “ANTI-CD97 ANTIBODIES AND ANTIBODY-DRUG CONJUGATES” (New York University, priority 2023, published 2025).

How the values were obtained:
Experiment in all cases: cell-based binding assay: CD97 GAIN mutant transiently expressed on ExpiCHO cells, A8 Fab titrated, flow cytometry MFI, 1:1 fit; upper panel
[1] = target: T1, Q365A (human, UniProt P48960)
T1 construct: transiently expressed on the surface of ExpiCHO cells, gated by anti-V5 tag staining; also called CD97 GAIN mutant Q365A expressed on ExpiCHO cells
T1 sequence (receptor, looked up): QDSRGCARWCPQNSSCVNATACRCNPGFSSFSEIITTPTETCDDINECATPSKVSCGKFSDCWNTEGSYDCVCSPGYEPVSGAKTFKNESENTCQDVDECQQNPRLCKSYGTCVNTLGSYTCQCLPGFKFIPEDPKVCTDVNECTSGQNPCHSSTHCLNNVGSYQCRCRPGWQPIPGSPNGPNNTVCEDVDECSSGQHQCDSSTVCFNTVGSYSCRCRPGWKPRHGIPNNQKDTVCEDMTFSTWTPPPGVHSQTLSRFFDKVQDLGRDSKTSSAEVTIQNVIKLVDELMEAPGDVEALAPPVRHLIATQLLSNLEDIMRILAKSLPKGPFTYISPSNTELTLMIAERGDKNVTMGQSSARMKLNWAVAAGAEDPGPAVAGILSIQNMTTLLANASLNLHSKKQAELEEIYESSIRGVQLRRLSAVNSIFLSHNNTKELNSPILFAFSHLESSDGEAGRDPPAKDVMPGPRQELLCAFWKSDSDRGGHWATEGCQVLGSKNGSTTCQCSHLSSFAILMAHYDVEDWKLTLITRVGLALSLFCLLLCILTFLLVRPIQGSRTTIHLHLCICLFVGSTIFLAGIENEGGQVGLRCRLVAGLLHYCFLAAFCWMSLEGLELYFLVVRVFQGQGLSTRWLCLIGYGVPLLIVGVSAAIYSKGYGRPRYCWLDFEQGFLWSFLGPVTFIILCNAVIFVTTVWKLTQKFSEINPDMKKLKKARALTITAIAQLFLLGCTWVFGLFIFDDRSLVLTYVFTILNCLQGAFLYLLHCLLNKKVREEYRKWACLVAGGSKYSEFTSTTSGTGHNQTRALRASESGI
Experimental: (§1) KD values were determined from the curve fitting of a 1:1 binding model.

[2] = target: T2, R380A (human, UniProt P48960)
T2 construct: transiently expressed on the surface of ExpiCHO cells, gated by anti-V5 tag staining; also called CD97 GAIN mutant R380A expressed on ExpiCHO cells
T2 sequence (receptor, looked up): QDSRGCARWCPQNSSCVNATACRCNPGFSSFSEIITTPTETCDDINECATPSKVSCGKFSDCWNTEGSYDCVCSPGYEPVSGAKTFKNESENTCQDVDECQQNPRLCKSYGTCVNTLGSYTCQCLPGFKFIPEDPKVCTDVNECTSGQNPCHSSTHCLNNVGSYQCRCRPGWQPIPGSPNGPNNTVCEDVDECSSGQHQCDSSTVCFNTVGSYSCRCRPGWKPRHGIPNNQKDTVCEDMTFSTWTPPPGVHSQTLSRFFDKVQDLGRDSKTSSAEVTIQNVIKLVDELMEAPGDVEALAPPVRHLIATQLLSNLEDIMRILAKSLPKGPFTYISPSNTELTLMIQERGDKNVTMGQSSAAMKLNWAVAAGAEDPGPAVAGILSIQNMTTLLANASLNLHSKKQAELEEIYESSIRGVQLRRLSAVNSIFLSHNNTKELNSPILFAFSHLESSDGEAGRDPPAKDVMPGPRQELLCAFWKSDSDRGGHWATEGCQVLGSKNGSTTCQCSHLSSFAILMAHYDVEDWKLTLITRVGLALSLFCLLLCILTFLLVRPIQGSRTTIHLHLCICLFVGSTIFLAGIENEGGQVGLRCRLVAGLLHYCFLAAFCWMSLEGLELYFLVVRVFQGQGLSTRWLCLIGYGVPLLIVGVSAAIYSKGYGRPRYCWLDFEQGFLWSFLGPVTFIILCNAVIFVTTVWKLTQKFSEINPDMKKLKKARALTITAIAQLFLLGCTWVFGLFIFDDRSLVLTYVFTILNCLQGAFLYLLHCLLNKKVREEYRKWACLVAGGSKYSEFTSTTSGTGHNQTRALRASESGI
Experimental: as §1

[3] = target: T3, CD97 GAIN mutant Q376A expressed on ExpiCHO cells (human, UniProt P48960 21-835)
T3 construct: numbering of isoform 1; whole entry named
T3 sequence: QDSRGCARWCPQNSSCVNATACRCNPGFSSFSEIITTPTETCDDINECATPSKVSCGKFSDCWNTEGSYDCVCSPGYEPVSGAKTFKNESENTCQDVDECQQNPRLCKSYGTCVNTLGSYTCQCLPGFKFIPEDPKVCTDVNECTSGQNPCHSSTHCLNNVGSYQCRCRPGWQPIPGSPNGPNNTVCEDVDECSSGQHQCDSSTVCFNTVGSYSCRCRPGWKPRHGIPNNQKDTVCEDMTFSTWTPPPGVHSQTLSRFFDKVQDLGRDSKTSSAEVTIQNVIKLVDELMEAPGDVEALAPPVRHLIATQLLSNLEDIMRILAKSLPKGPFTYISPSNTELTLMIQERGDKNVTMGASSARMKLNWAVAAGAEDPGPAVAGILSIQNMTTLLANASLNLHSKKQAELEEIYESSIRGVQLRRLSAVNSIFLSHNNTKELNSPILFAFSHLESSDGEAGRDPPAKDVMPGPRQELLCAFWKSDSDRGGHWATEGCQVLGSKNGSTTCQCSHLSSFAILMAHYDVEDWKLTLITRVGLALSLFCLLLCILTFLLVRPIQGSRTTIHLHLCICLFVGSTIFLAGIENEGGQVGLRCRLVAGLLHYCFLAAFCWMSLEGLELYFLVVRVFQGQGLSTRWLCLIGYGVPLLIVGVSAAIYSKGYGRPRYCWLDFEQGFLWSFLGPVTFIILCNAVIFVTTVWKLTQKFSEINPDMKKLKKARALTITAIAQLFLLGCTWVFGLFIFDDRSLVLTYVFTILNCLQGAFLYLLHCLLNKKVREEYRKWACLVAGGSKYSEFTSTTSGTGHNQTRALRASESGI
Experimental: as §1

B1: Antibody clone A8, Fab format (Fab, V domains shown)
VH: EVQLVESGGGLVQPGGSLRLSCAASGFTISSYSIHWVRQAPGKGLEWVASISPYYGSTSYADSVKGRFTISADTSKNTAYLQMNSLRAEDTAVYYCARSWYYYEQNPYWYQKEEQALDYWGQGTLVTVSS
VL: DIQMTQSPSSLSASVGDRVTITCRASQSVSSAVAWYQQKPGKAPKLLIYSASSLYSGVPSRFSGSRSGTDFTLTISSLQPEDFATYYCQQSVYSPVTFGQGTKVEIKR
notes: Fab; also called wild type A8
With B1 the Kd [1] was 56 nM, the Kd [2] was 160 nM and the Kd [3] was 310 nM.
